This data set deals with the molecule itself. Nature of the data set: gel filtration; self-association of subunits into a homotetramer.

B1: recombinant human β-I tryptase (from pPIC9-HumTry, expressed in Pichia pastoris) (enzyme)
chain: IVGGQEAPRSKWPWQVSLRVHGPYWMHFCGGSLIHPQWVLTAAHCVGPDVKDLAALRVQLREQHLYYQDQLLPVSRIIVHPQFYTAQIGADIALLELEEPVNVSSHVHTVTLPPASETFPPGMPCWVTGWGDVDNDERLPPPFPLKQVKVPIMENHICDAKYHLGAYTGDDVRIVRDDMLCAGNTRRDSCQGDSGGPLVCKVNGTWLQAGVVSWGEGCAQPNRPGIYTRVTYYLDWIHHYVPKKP
modifications: N-glycosylated at two sites (N102 and N204, as the filing says)
notes: Secreted as a mature monomer that self-assembles into a homotetramer; On the Western blots (SDS-PAGE) it stood as denatured subunits; also called rh β I; R βI tryptase
For B1, the binding result is reported as “binds”.

B2: human β-I tryptase active site mutant S194A (enzyme)
chain: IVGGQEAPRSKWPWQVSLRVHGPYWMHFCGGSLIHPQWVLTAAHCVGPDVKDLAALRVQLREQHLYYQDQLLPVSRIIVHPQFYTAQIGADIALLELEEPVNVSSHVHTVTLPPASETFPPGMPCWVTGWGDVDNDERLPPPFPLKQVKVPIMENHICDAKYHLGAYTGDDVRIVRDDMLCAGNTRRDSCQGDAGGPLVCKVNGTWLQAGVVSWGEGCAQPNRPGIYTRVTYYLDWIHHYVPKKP
notes: also called β-I S194A active site mutant; S194A β-I tryptase active site mutant
For the protein B2, the binding result was “binds”.

B3: recombinant human β-II tryptase (from pPIC9-HumTryN102K, expressed in Pichia pastoris) (enzyme)
chain: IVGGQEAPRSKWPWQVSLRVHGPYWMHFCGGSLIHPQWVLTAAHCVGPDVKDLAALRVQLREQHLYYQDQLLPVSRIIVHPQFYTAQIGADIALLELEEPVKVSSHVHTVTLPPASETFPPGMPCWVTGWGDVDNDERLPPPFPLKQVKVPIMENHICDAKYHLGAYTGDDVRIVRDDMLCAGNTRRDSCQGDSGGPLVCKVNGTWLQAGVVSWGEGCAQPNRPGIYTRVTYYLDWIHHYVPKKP
modifications: N-glycosylated at one site
notes: Homotetramer by gel filtration; also called rh β II; R βII tryptase
In the case of B3, the binding result is recorded as “binds”.

Source of the values: US6998260 (PROMEGA, dated 2006).
